The target in assay [1] is PD-L1 IgV-TIM-3 chimera with K124S in the PD-L1 IgV domain, on transfected COS cells (human) (UniProt Q9NZQ7). Description: flow cytometry on cells. A general note: A flow cytometer gives signals particle by particle.
Assay [2] addresses PD-L1 IgV-TIM-3 chimera with M115A in the PD-L1 IgV domain, on transfected COS cells (human) (UniProt Q9NZQ7). Description: flow cytometry on cells.

These results are taken from publication PMC7394266.

“human B7–1-hIgG1 recombinant fusion protein (from UniProt P33681 35-242) (Fc fusion)”: the percent decrease in binding against the unmutated chimera in assay [1] and in assay [2] was 80% each time.
